According to US20090312247:

Assays:
[1] = tested on: FLAG-epitope tagged NPRA stably over-expressed in HEK293 cells (HEK-NPRA cells)
[2] = tested on: 5'-FLAG epitope-tagged sNRF^(806-900)
[3] = tested on: full-length NPRA (SEQ ID NO: 2)
Chain of full-length NPRA (SEQ ID NO: 2) (chain, as listed by the source): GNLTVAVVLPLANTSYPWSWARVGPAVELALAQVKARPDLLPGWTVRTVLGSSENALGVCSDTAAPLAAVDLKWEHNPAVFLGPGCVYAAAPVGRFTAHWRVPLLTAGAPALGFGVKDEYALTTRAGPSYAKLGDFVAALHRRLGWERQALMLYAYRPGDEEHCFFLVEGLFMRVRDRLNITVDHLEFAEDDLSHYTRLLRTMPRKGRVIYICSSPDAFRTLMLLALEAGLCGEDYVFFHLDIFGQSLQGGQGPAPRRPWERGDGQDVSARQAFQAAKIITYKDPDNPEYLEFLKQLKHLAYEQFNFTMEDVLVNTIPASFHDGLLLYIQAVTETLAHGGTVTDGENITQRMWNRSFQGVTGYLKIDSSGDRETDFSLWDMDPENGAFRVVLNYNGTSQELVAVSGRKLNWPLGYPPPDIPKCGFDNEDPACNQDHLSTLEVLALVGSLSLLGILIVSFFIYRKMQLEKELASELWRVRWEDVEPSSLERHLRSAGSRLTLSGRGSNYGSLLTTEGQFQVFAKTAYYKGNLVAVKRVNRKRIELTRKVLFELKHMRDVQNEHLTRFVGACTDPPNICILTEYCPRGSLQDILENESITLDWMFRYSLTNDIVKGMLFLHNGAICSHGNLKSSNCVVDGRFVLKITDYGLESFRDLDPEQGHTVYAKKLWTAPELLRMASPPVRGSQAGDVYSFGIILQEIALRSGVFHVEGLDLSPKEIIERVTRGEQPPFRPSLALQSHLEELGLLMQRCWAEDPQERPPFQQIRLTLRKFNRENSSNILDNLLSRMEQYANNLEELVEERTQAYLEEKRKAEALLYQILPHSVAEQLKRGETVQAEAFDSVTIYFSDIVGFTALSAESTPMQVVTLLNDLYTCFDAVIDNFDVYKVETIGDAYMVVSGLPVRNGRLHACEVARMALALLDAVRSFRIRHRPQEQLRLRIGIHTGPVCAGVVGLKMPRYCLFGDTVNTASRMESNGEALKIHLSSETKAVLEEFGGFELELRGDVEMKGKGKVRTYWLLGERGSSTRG

Chain of 5'-FLAG epitope-tagged sNRF^(806-900) (chain, as listed by the source): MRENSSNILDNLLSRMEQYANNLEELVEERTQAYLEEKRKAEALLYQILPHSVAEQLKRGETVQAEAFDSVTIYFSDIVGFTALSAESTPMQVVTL

Question: “cGMP-dependent protein kinase I (PKG) in HEK-NPRA cells” was tested. Which “ANP-induced phosphorylation of a 137-kD protein ([35S]ATPγS, autoradiography)” value [1] did it give?
Answer: Robust phosphorylation of a 137-kD protein occurred in the NPRA-expressing cells, but not in control cells

Question: For “cGMP-dependent protein kinase I (PKG), endogenous in neonatal rat cardiac fibroblasts”, which “ANP-induced NPRA phosphorylation in cardiac fibroblasts ([35S]ATPγS incorporation)” value [2] is on record?
Answer: both KT5823 or expressed sNRF^(806-900) protein reduced ANP-induced NPRA phosphorylation to control levels

Question: For recombinant PKG, which “phosphorylation ([35S]ATPγS incorporation, autoradiography of Cos7 membrane lysates)” value [3] is on record?
Answer: SDS page gels demonstrated a phosphorylated 137 kD protein that corresponded to full-length NPRA
